Experiments:
[1] = tested on: COLO 205 (CanAg antigen-positive) cancer cells; assay: Cytotoxicity evaluation on COLO 205 cells; format: cell-based, human; settings: COLO 205 (CanAg antigen-positive) cells, FIG. 1
Excerpt: (§1) The human cancer cell lines HL60, Namalwa, A-375, COLO205 and Ramos were obtained from the American Type Culture Collection (ATCC). Kara is a murine tumor cell line that has been stably transfected with the human CD33 antigen.

A375 cells = assay: Cytotoxicity evaluation on A375 cells; format: cell-based, human; settings: FIG. 1
Excerpt: as §1

B1: huC242-SSNPB-leptomycin of example 6 (conjugate, chains of the INN, looked up)
VH: QVQLVQSGAEVKKPGETVKISCKASDYTFTYYGMNWVKQAPGQGLKWMGWIDTTTGEPTYAQKFQGRIAFSLETSASTAYLQIKSLKSEDTATYFCARRGPYNWYFDVWGQGTTVTVSS
VL: DIVMTQSPLSVPVTPGEPVSISCRSSKSLLHSNGNTYLYWFLQRPGQSPQLLIYRMSNLVSGVPDRFSGSGSGTAFTLRISRVEAEDVGVYYCLQHLEYPFTFGPGTKLELK
modifications: SSNPB-leptomycin conjugate
For B1, the IC50 [1] was 130 pM and the IC50 (A375 cells) was > 5000 pM.
